# Results as given in PMC13477270 (Nature structural & molecular biology, 2025).
# B1: miniTRIM37 RING–B-box-2–hcc B-box-2 mutant (other)
# chain: MDEQSVESIAEVFRCFICMEKLRDARLCPHCSKLCCFSCIRRWLTEQRAQCPHCRAPLQLRELVNCRWAEEVTQQLDTLQLCSLTKHEENEKDKCENHHEKLSVFCWTCKKCICAQCAAWGGMHGGHTFKPLAEIYEQHVTKVNEEVAKLRRRLMELITERNQVAKRVPKAPPEEKEALIARGKALGEETELLESLLQEVEHQLRSCSKSELISKSSEILMMFQQVHRK
# Target: the molecule itself
# Experiment: SEC-MALS
protein,measurement,value
B1,stoichiometry N,2
